Abs312 (light scattering of cylinder formation), apparent mass (gel filtration, oligomerization state) and Kd data for 5 substances are collected here from patent US20050009743A1.

In assay [1] the target is CA-NC(G94D) with the CA W184A/M185A mutations (plasmid WISP01127) (HIV-1 NL4-3). As to the kind of experiment: self-assembly of 9 µM mutant protein with 1 µM d(TG)50, overnight at 4 °C, 500 mM NaCl, 50 mM Tris-HCl pH 8.0; light scattering at 312 nm.
Assay [2] concerns the target HIV-1 CA-NC (wild-type) (HIV-1 NL4-3). As to the kind of experiment: self-assembly of 9 µM protein with 1 µM d(TG)50, overnight at 4 °C, 500 mM NaCl, 50 mM Tris-HCl pH 8.0; light scattering at 312 nm (the filing puts the higher signal down to aggregation).
Assay [3] deals with HIV-1 CA-NC(G94D) protein (HIV-1 NL4-3 Gag amino acids 133-433 with the point mutation G94D; plasmid WISP9868) (HIV-1 NL4-3). As to the kind of experiment: self-assembly of 9 µM CA-NC(G94D) with 0.03 mg/ml random 100-base oligonucleotide d(N)100, overnight at 4 °C, 500 mM NaCl, 50 mM Tris-HCl pH 8.0; light scattering at 312 nm (only slightly above background).
For assay [4] the target is unchanged. The assay is described as follows: self-assembly of 9 µM CA-NC(G94D) with 0.03 mg/ml d(TG)50, overnight at 4 °C, 500 mM NaCl, 50 mM Tris-HCl pH 8.0; light scattering at 312 nm.
For assay [5] the target is unchanged. As to the kind of experiment: self-assembly of 9 µM CA-NC(G94D) with 0.03 mg/ml d(TG)25, overnight at 4 °C, 500 mM NaCl, 50 mM Tris-HCl pH 8.0; light scattering at 312 nm.
Assay [6] has the same target. As to the kind of experiment: self-assembly of 9 µM protein with 1 µM d(TG)50, overnight at 4 °C, 500 mM NaCl, 50 mM Tris-HCl pH 8.0; light scattering at 312 nm.
The target is the same in assay [7]. The assay is described as follows: self-assembly of 9 µM CA-NC(G94D) with 0.03 mg/ml d(TG)38, overnight at 4 °C, 500 mM NaCl, 50 mM Tris-HCl pH 8.0; light scattering at 312 nm.
Assay [8] shares this target. As to the kind of experiment: self-assembly of 9 µM CA-NC(G94D) with 1 µM d(TG)50, 16 h at 4 °C, 500 mM NaCl, 50 mM Tris-HCl; light scattering at 312 nm.
Assay [9] has as its target CA-NC(G94D) with the CA A42D mutation (plasmid WISP01125) (HIV-1 NL4-3). As to the kind of experiment: self-assembly of 9 µM mutant protein with 1 µM d(TG)50, overnight at 4 °C, 500 mM NaCl, 50 mM Tris-HCl pH 8.0; light scattering at 312 nm.
The target in assay [10] is (CA-CTD)2, two copies of the HIV-1 CA C-terminal dimerization domain in tandem (plasmid WISP0070) (HIV-1 NL4-3). The assay is described as follows: Superdex 75 gel filtration, 4 mg/ml loaded, 25 mM phosphate pH 7.2, 150 mM NaCl; self-association. A general note: In gel filtration, larger molecules generally elute earlier.
Assay [11] shares this target. The assay is described as follows: equilibrium sedimentation (analytical ultracentrifugation), 22,000 rpm, 4 °C, 25 mM phosphate pH 7.0, 100 mM NaCl, 2 mM DTT; self-association.

On to “CA-NC(G94D) with the CA W184A/M185A mutations (plasmid WISP01127)”, for which, in assay [1], the Abs312 (light scattering of cylinder formation) was found to be 0.008.

In turn, HIV-1 CA-NC (wild-type) displayed an Abs312 (light scattering of cylinder formation) in assay [2] of 0.735.

Take “HIV-1 CA-NC(G94D) protein (HIV-1 NL4-3 Gag amino acids 133-433 with the point mutation G94D; plasmid WISP9868)”: the Abs312 (light scattering of cylinder formation) was 0.035 in assay [3]; 0.292 in assay [4]; 0.2 in assay [5]; 0.292 in assay [6]; 0.279 in assay [7]; 0.3 to 0.4 in [8].

In turn, “CA-NC(G94D) with the CA A42D mutation (plasmid WISP01125)” came in with an Abs312 (light scattering of cylinder formation) in assay [9] of 0.025.

With “(CA-CTD)2, two copies of the HIV-1 CA C-terminal dimerization domain in tandem (plasmid WISP0070)”, the apparent mass (gel filtration, oligomerization state) in [10] turned out to be 59 kDa. For the same substance, the Kd (usually the free concentration of one partner at which half of the binding sites on the other are occupied at equilibrium, for simple one-to-one binding) in assay [11] is below 1 µM.
